Experimental data published in patent US20240174727A1, “LONG-ACTING NATRIURETIC PEPTIDES AND USES THEREOF” (Eli Lilly and Company, priority 2022, published 2024).
Numbered stars: 1 amine (or outer) side, 2 acyl side, 3 side chain; on linkers, the order of the positions; unused ones are H or OH. Bridge positions count the residues as written; N and C are the ends. Square brackets hold non-standard residues; d marks the D form. * marks the point of attachment. thioacetal = thioacetal linkage between two cysteines (intrachain bond at the bracketed Cys); C20 diacid = O=C(O)CCCCCCCCCCCCCCCCCCC(=O)*; γGlu = O=C(O)[C@H](CCC(=O)[*:2])N[*:1]; Orn = NCCC[C@H](N)C(=O)O; Dap = NC[C@H](N)C(=O)O; βAla = NCCC(=O)O

T1: human NPRA (human, UniProt P16066 33-1061)
T1 sequence (looked up): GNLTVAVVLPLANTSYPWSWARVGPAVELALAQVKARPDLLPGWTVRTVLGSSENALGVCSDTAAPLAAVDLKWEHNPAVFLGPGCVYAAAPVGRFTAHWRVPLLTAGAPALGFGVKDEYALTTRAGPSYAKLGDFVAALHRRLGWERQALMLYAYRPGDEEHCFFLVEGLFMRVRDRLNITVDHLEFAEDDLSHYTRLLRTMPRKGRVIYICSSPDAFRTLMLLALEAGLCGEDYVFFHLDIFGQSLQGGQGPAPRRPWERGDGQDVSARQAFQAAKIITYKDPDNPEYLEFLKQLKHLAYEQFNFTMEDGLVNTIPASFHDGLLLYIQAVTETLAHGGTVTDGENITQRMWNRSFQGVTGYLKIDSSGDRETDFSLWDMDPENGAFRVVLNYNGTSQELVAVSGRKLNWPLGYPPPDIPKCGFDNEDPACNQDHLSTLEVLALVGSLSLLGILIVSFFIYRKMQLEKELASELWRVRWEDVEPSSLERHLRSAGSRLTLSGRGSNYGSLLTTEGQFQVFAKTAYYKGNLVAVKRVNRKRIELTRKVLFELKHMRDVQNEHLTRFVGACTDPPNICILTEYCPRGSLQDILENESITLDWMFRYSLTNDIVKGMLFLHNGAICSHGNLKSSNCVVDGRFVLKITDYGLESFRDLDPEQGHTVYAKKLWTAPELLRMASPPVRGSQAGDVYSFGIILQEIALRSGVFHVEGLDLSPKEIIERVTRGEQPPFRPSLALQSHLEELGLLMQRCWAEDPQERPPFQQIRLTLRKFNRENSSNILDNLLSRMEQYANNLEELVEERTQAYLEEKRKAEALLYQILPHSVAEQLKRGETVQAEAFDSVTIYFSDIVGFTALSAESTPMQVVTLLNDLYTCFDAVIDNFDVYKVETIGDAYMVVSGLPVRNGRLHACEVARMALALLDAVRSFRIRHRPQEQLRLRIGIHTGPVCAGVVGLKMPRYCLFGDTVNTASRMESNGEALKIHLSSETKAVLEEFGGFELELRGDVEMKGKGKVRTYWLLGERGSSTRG

T2: rat NPRA (rat, UniProt P18910 29-1057)
T2 sequence (looked up): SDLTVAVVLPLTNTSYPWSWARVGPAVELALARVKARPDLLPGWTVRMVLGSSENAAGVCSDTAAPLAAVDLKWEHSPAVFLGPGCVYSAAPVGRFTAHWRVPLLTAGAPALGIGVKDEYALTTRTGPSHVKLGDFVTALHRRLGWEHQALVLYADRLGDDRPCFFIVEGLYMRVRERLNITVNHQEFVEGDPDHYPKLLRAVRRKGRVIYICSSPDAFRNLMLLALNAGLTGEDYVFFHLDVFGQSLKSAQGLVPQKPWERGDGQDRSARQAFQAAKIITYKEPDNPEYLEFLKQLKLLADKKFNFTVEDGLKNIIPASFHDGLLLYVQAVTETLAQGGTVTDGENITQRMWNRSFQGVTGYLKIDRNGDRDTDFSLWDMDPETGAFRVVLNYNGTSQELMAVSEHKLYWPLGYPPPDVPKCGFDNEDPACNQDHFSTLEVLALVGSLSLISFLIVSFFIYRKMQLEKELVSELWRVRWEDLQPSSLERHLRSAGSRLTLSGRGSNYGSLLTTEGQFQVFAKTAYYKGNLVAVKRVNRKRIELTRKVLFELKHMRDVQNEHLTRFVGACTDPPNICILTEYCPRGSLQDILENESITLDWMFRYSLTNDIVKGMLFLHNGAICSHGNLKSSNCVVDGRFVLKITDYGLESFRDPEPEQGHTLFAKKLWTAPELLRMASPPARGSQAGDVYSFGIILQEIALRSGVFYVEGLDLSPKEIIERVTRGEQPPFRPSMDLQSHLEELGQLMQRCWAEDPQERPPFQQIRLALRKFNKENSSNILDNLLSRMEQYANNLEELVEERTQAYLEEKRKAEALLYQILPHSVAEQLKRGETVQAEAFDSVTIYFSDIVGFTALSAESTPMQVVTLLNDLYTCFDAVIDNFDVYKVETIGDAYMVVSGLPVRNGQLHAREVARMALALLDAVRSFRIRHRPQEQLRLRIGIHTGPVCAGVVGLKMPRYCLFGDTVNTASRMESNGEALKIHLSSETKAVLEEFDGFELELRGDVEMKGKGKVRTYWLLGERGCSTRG


Assays:
[1] = target: T1, human NPRA; experiment: cell-based or functional assay
[2] = target: T2, rat NPRA; experiment: cell-based or functional assay

| Binder | cGMP Assay (EC50, pM) w/BSA, hNPRA [1] | cGMP Assay (EC50, pM) w/Casein, hNPRA [1] | cGMP Assay (EC50, pM) w/BSA, rNPRA [2] | cGMP Assay (EC50, pM) w/Casein, rNPRA [2] |
| --- | --- | --- | --- | --- |
| {C20 diacid-γGlu}-EKEKEKGEKPRSSCFGKRIDRIGHQSGLGCPSFRHGSGSPSSGAPPPSG-NH2 (bridge 14-30 via thioacetal) [HOOC-(CH2)18-CO-(γGlu)-EKEKEKGEKPRSS[CFGKRIDRIGHQSGLGC]PSFRHGSGSPSSGAPPPSG-NH2] | 37600 pM | 392 pM | 816000 pM | 2160 pM |
| {C20 diacid-γGlu}-EKEKEKGEKPRSSCFGG[Dap]IDRIGHYSGLGCPSFRHGSPSSGAPPPS-NH2 (bridge 14-30 via thioacetal) [HOOC-(CH2)18-CO-(γGlu)-EKEKEKGEKPRSS[CFGG-Dap-IDRIGHYSGLGC]PSFRHGSPSSGAPPPS-NH2] | 1.41e+06 pM | 5350 pM | 3.8e+06 pM | 71700 pM |
| {C20 diacid-γGlu}-EKEKEKGEKPRSSCFGKRIDRIGRYSGLGCPSFRHGSPSSGAPPPS-NH2 (bridge 14-30 via thioacetal) [HOOC-(CH2)18-CO-(γGlu)-EKEKEKGEKPRSS[CFGKRIDRIGRYSGLGC]PSFRHGSPSSGAPPPS-NH2] | 11700 pM | 692 pM | 4.18e+06 pM | 41100 pM |
| EKXRSSCFGKRIDRIGHQSGLGCPSFRHGSPSSGAPPPS (N-terminus acylated with HOOC-(CH2)18-CO-(γGlu)-; (AEEA)8 after EKEKEKG; βAla; thioacetal linkage between the two bracketed Cys; C-terminal amide) [HOOC-(CH2)18-CO-(γGlu)-EKEKEKG-(AEEA)8-EK-βAla-RSS[CFGKRIDRIGHQSGLGC]PSFRHGSPSSGAPPPS-NH2] | 10000 pM | 542 pM | 696000 pM | 25400 pM |
| EKPRSSCFGKRIDRIGHYSGLGCPSFRHGSPSSGAPPPS (N-terminus acylated with HOOC-(CH2)18-CO-(γGlu)-; (AEEA)6 after EKEKEKG; thioacetal linkage between the two bracketed Cys; C-terminal amide) [HOOC-(CH2)18-CO-(γGlu)-EKEKEKG-(AEEA)6-EKPRSS[CFGKRIDRIGHYSGLGC]PSFRHGSPSSGAPPPS-NH2] | 6380 pM | 490 pM | 150000 pM | 3770 pM |
| EKPRSSCFGKRIDRIGHYSGLGCPSFRHGSPSSGAPPPS (N-terminus acylated with HOOC-(CH2)18-CO-(γGlu)-; (AEEA)8 after EKEKEKG; thioacetal linkage between the two bracketed Cys; C-terminal amide) [HOOC-(CH2)18-CO-(γGlu)-EKEKEKG-(AEEA)8-EKPRSS[CFGKRIDRIGHYSGLGC]PSFRHGSPSSGAPPPS-NH2] | 9550 pM | 902 pM | 147000 pM | 3990 pM |
| EKPRSSCFGKRIDRIGHYSGLGCPSFRHGSPSSGAPPPS (N-terminus acylated with HOOC-(CH2)18-CO-(γGlu)-; PEG24 after EKEKEKG; thioacetal linkage between the two bracketed Cys; C-terminal amide) [HOOC-(CH2)18-CO-(γGlu)-EKEKEKG-PEG24-EKPRSS[CFGKRIDRIGHYSGLGC]PSFRHGSPSSGAPPPS-NH2] | 5170 pM | 736 pM | 80200 pM | 4850 pM |
| {C20 diacid-γGlu}-EKEKEKGEKPRSSCFGKRIDRIG[Orn]YSGLGCPSFRHGSPSSGAPPPS-NH2 (bridge 14-30 via thioacetal) [HOOC-(CH2)18-CO-(γGlu)-EKEKEKGEKPRSS[CFGKRIDRIG-Orn-YSGLGC]PSFRHGSPSSGAPPPS-NH2] | 104000 pM | 497 pM | 6.52e+06 pM | 186000 pM |
| {C20 diacid-γGlu}-EKEKEKGEKPRSSCFGG[Dap]IDRIGHQSGLGCPSFRHGSPSSGAPPPS-NH2 (bridge 14-30 via thioacetal) [HOOC-(CH2)18-CO-(γGlu)-EKEKEKGEKPRSS[CFGG-Dap-IDRIGHQSGLGC]PSFRHGSPSSGAPPPS-NH2] | 2.87e+06 pM | 19700 pM | 1.73e+06 pM | 200000 pM |
| {C20 diacid-γGlu}-EKEKEKGEKPRSSCFGKRIDRIGHQSGLGCPSFRHGSPSSGAPPPS-NH2 (bridge 14-30 via thioacetal) [HOOC-(CH2)18-CO-(γGlu)-EKEKEKGEKPRSS[CFGKRIDRIGHQSGLGC]PSFRHGSPSSGAPPPS-NH2] | 41500 pM | 703 pM | 341000 pM | 2020 pM |
| EKPRSSCFGKRIDRIGHYSGLGCPSFRHSGSPSSGAPPPSG (N-terminus acylated with HOOC-(CH2)18-CO-(γGlu)-; PEG24 after EKEKEKG; thioacetal linkage between the two bracketed Cys; C-terminal amide) [HOOC-(CH2)18-CO-(γGlu)-EKEKEKG-PEG24-EKPRSS[CFGKRIDRIGHYSGLGC]PSFRHSGSPSSGAPPPSG-NH2] | 3980 pM | 656 pM | 74300 pM | 4510 pM |
| EKPRSSCFGKGIDRIGHQSGLGCPSFRHSGSPSSGAPPPSG (N-terminus acylated with HOOC-(CH2)18-CO-(γGlu)-; PEG24 after EKEKEKG; thioacetal linkage between the two bracketed Cys; C-terminal amide) [HOOC-(CH2)18-CO-(γGlu)-EKEKEKG-PEG24-EKPRSS[CFGKGIDRIGHQSGLGC]PSFRHSGSPSSGAPPPSG-NH2] | 302000 pM | 38700 pM | 1.45e+06 pM | 580000 pM |
| EKPRSSCFGKRIDRIGHYSGLGCPSFRHSGSPSSGAPPPSG (N-terminus acylated with HOOC-(CH2)18-CO-(γGlu)-; (AEEA)8 after EKEKEKG; thioacetal linkage between the two bracketed Cys; C-terminal amide) [HOOC-(CH2)18-CO-(γGlu)-EKEKEKG-(AEEA)8-EKPRSS[CFGKRIDRIGHYSGLGC]PSFRHSGSPSSGAPPPSG-NH2] | 6370 pM | 1090 pM | 88500 pM | 3760 pM |
| EKPRSSCFGKRIDRIGHQSGLGCPSFRHSGSPSSGAPPPSG (N-terminus acylated with HOOC-(CH2)18-CO-(γGlu)-; PEG24 after EKEKEKG; thioacetal linkage between the two bracketed Cys; C-terminal amide) [HOOC-(CH2)18-CO-(γGlu)-EKEKEKG-PEG24-EKPRSS[CFGKRIDRIGHQSGLGC]PSFRHSGSPSSGAPPPSG-NH2] | 5300 pM | 704 pM | 260000 pM | 9390 pM |
| {C20 diacid}-[γGlu]EKEKEKGEK[βAla]RSSCFGKRIDRIGHYSGLGCPSFRHGSPSSGAPPPS-NH2 (bridge 15-31 via thioacetal) [HOOC-(CH2)18-CO-(γGlu)-EKEKEKGEK-βAla-RSS[CFGKRIDRIGHYSGLGC]PSFRHGSPSSGAPPPS-NH2] | 23700 pM | 566 pM | 498000 pM | 2010 pM |
